Reference: patent publication US20200055941A1 (MILTENYI BIOTEC, published 2020)

B1: aCD303-hIgG4-WT (antibody)
heavy: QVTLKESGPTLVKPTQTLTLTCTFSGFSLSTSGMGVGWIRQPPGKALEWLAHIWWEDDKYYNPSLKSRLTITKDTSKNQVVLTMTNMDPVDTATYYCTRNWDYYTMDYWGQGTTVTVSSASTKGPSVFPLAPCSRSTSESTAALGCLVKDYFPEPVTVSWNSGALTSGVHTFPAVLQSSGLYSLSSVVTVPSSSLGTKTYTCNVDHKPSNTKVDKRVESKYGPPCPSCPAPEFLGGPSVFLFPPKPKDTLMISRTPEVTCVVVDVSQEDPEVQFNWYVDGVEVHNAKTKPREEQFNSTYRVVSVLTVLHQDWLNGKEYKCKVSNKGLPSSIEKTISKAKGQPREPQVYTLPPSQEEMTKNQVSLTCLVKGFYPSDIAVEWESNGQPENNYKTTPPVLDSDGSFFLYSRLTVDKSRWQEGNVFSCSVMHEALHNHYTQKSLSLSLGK
light: DIQMTQSPSSVSASVGDRVTITCRASQEISGYLSWYQQKPGKAIKRLIYAASTLDSGVPSRFSGSRSGTDFTLTISSLQSEDFATYYCLQYASYPPTFGGGTKLEIKGTVAAPSVFIFPPSDEQLKSGTASVVCLLNNFYPREAKVQWKVDNALQSGNSQESVTEQDSKDSTYSLSSTLTLSKADYEKHKVYACEVTHQGLSSPVTKSFNRGEC
notes: MB101 (anti-CD303) expressed as a wild type IgG4; also called wt IgG4; wild type IgG4 antibody (aCD303-hIgG4)
B2: MB101 (aCD303-hIgG4-S241P/R409K) (antibody)
heavy: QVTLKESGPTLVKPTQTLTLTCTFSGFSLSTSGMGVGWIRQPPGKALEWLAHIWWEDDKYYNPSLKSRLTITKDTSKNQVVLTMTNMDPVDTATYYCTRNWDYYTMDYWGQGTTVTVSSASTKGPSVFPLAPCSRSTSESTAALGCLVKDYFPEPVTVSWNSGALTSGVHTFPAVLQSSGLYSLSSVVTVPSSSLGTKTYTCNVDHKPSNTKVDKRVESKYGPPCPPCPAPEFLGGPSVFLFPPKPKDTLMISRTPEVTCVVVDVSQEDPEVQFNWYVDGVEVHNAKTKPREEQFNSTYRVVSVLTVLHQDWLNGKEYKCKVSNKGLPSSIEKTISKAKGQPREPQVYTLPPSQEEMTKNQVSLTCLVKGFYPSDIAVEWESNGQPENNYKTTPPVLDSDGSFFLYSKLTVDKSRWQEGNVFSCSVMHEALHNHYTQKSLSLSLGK
light: B1 light
notes: Humanized IgG4 against BDCA-2 (CD303), made in CHO DG44 cells; also called MB101.10; anti-CD303 IgG4 S241P/R409K
B3: Pool 6 (aCD303-hIgG4-R409K) (antibody)
heavy: QVTLKESGPTLVKPTQTLTLTCTFSGFSLSTSGMGVGWIRQPPGKALEWLAHIWWEDDKYYNPSLKSRLTITKDTSKNQVVLTMTNMDPVDTATYYCTRNWDYYTMDYWGQGTTVTVSSASTKGPSVFPLAPCSRSTSESTAALGCLVKDYFPEPVTVSWNSGALTSGVHTFPAVLQSSGLYSLSSVVTVPSSSLGTKTYTCNVDHKPSNTKVDKRVESKYGPPCPSCPAPEFLGGPSVFLFPPKPKDTLMISRTPEVTCVVVDVSQEDPEVQFNWYVDGVEVHNAKTKPREEQFNSTYRVVSVLTVLHQDWLNGKEYKCKVSNKGLPSSIEKTISKAKGQPREPQVYTLPPSQEEMTKNQVSLTCLVKGFYPSDIAVEWESNGQPENNYKTTPPVLDSDGSFFLYSKLTVDKSRWQEGNVFSCSVMHEALHNHYTQKSLSLSLGK
light: B1 light
notes: Single mutation variant of MB101; also called anti-CD303 IgG4 R409K; IgG4 variant R409K

Columns and labels:
[1] = molecular target: T1, Recombinant Human Fc gamma RIIb/CD32b (human, UniProt P31994 46-217); assay: ELISA, plates coated with recombinant CD32b/c, anti-human kappa-HRP
T1 construct: also called FcγRIIb; CD32b/c
T1 sequence (looked up): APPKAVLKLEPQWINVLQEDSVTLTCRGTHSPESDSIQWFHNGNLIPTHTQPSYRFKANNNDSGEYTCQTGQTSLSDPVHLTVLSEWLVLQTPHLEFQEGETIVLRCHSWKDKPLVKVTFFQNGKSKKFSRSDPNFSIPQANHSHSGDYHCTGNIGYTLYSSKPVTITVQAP
Experimental: To examine more precisely the CD32b/c binding of MB101, the wt IgG₄ and the two single mutation variants, linear dilutions of the mAbs were incubated with ELISA plates previously coated with recombinant CD32b/c. FcR-bound anti-BDCA2 Ab were probed with anti-human kappa-HRP and TMB-substrate.
(§1) ELISA plates were coated with Fc gamma receptors I, IIa, IIb, IIIa and IIIb with 5 μg/mL each in coating buffer overnight at 4° C. Coated plates were washed 3-fold with 1×PBS 0.05% Tween 20 and blocked with 5% BSA in 1×PBS. Antibodies were applied to ELISA plates with 50 μL/well at serial 2-fold dilution of antibody solution and incubated at room temperature for 1 h. As blank controls, respective antibody concentrations were also applied to wells lacking coated Fc gamma receptors, in order to subtract unspecific binding from resulting signals. After washing (see above), the detection antibody anti-human kappa-HRP (FE 110316.07) 1:4000 in 1×PBS was applied with 50 μL/well and incubated again at RT for 1 h. After additional washing (see above), for assay development 50 μL/well TMB (CH111027.37) were applied and stopped after approx. 5 minutes with 50 μL/well 10% H₂SO₄. The developed plate was then analyzed via ELISA reader at 450 nm wavelength.

[2] = molecular target: T1, Recombinant Human Fc gamma RIIb/CD32b; assay: ELISA, plate-bound recombinant receptor, anti-human kappa-HRP
Experimental: as §1

[3] = molecular target: T2, Recombinant Human Fc gamma RIIIb/CD16b (human, UniProt O75015 17-200); assay: as above
T2 construct: also called Fcγ RIIIb/c; CD16b/c
T2 sequence (O75015 17-200 limits assumed): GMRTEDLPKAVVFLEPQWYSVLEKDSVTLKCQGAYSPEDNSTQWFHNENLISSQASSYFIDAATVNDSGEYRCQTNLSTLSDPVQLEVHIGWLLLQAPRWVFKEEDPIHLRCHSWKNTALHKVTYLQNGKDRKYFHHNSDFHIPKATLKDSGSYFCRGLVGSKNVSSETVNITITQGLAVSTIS
Experimental: as §1

| Binder | binding result [1] | binding result [2] | binding result [3] |
| --- | --- | --- | --- |
| B1 | binds | – | – |
| B2 | – | binds | no binding |
| B3 | binds | – | – |
